Reference: publication PMC10952841, “Biocatalytic synthesis of 2′‐deoxynucleotide 5′‐triphosphates from bacterial genomic DNA: Proof of principle” (Biotechnology and Bioengineering, 2023)

Tested on: T1, Nc1ncnc2c1ncn2[C@H]1C[C@H](O)[C@@H](COP(=O)(O)O)O1
T1 construct: C-terminal 6x His tag (pET24a), kept; E. coli BL21(DE3) host; Ni-NTA
Experiment: purified protein
Assay type: biochemical, Escherichia coli
Conditions: 2 mM ATP, 10 mM Mg acetate, 50 mM K acetate, 20 mM Tris-acetate, 37°C, three protein batches (N = 3)

adenylate kinase (adk) (Escherichia coli K-12)
Km: 359 ± 84 µM
Vmax: 47.9 µmol/min/mg
